Source: patent EP4613288A1

B1: murine antibody HAPC1573 (antibody, from another filing, V domains shown)
VH: EVKLEESGGGLVQPGGSMKLSCVASGFTFSNYYLNWVRQSPEKGLEWVADIRLKSNNYEKHYAESVKGRFTISRDDSKSSVYLQMNNLRAEDTGIYYCIREGDYFDYWGQGTTLTVSS
VL: NIVLTQSPASLAVSLGQRATISCRASESVDSFGATFMHWYQQKPGQPPKLLIYLASNLESGVPARFSGSGSRTDFTLTIDPVEADDAATYYCQQNNEDPYTFGGGTKLEIKR
B2: anti-aPC monoclonal antibody HAPC-14-6 (antibody, V domains shown)
VH: EVQLVESGGGLVQPGGSLRLSCAASGFTFSFYYLNWVRQAPGKGLEWVGDIRLKKNNYEKHYAESVKGRFTISRDDSKSITYLQMNSLRAEDTAVYYCAREGDYFDYWGQGTTVTVSS
VL: DIQLTQSPSSLSASVGDRVTITCRASESVDSFGATFMHWYQQKPGKAPKLLIYLASRLGSGVPSRFSGSGSGTDFTLTISSLQPEDFATYYCQQNNEDPYTFGQGTKLEIK

Columns and labels:
[1] = biological target: human activated protein C (human) (UniProt P04070); assay: cell-based or functional assay
[2] = biological target: human activated protein C (human) (UniProt P04070)

Binder | Mean Value of the Clotting Time (s), Protac-induced APTT, FIX-deficient plasma, antibody 0.5 µg/ml [1] | Mean Value of the Clotting Time (s), Protac-induced APTT, FIX-deficient plasma, antibody 1 µg/ml [1] | Mean Value of the Clotting Time (s), Protac-induced APTT, FIX-deficient plasma, antibody 5 µg/ml [1] | Mean Value of the Clotting Time (s), Protac-induced APTT, FVIII-deficient plasma, antibody 0.5 µg/ml [1] | Mean Value of the Clotting Time (s), Protac-induced APTT, FVIII-deficient plasma, antibody 1 µg/ml [1] | Mean Value of the Clotting Time (s), Protac-induced APTT, FVIII-deficient plasma, antibody 5 µg/ml [1] | minimal dose inhibiting aPC anticoagulant activity, Protac-induced APTT, human plasma deficient in various coagulation factors [1] | fold increase in affinity compared to the humanized antibody without mutations in the CDR regions [2]
B1 | 584 s | 567 s | 404 s | 600 s | 629 s | 389 s | > 100 µg/mL | 
B2 | 181 s | 198 s | 180 s | 182 s | 187 s | 162 s | < 1 µg/mL | 100 fold
